IntAct's records for PubMed 31515488

B1: Zinc finger protein 655 (Homo sapiens), Q8N720 (parent)
chain: MEEIPAQEAAGSPRVQFQSLETQSECLSPEPQFVQDTDMEQGLTGDGETREENKLLIPKQKISEEVHSYKVRVGRLKHDITQVPETREVYKSEDRLERLQEILRKFLYLEREFRQITISKETFTSEKNNECHEPEKSFSLDSTIDADQRVLRIQNTDDNDKYDMSFNQNSASGKHEHLNLTEDFQSSECKESLMDLSHLNKWESIPNTEKSYKCDVCGKIFHQSSALTRHQRIHTREKPYKCKECEKSFSQSSSLSRHKRIHTREKPYKCEASDKSCEASDKSCSPSSGIIQHKKIHTRAKSYKCSSCERVFSRSVHLTQHQKIHKEMPCKCTVCGSDFCHTSYLLEHQRVHHEEKAYEYDEYGLAYIKQQGIHFREKPYTCSECGKDFRLNSHLIQHQRIHTGEKAHECNECGKAFSQTSCLIQHHKMHRKEKSYECNEYEGSFSHSSDLILQQEVLTRQKAFDCDVWEKNSSQRAHLVQHQSIHTKENS
B2: GRIP and coiled-coil domain-containing protein 1 (Homo sapiens), Q96CN9 (parent)
chain: MEKFGMNFGGGPSKKDLLETIETQKKQLLQYQARLKDVVRAYKSLLKEKEALEASIKVLSVSHEADVGLAGVQLPGLTFPDSVDDRCSTHSEDSTGTATSLDTAASLTSTKGEFGVEDDRPARGPPPPKSEEASWSESGVSSSSGDGPFAGGEVDKRLHQLKTQLATLTSSLATVTQEKSRMEASYLADKKKMKQDLEDASNKAEEERARLEGELKGLQEQIAETKARLITQQHDRAQEQSDHALMLRELQKLLQEERTQRQDLELRLEETREALAGRAYAAEQMEGFELQTKQLTREVEELKSELQAIRDEKNQPDPRLQELQEEAARLKSHFQAQLQQEMRKTALAEDQLRQQSQVEEQRVAALENQISEVSELLGTYEKAKQKDQLAIQKLKERILQLDLENKTLALAASSRSPLDSHGEESSLDVNVLKDKMEKLKRLLQVAARKSQVTLDVEKLCDLEIMPSSEAADGEKATALYYQQELKQLKEEFERYKMRAQVVLKSKNTKDGNLGKELEAAQEQLAELKEKYISLRLSCEELEHQHQQEADDWKQELARLQQLHRQELERCQLDFRDRTLKLEEELHKQRDRALAVLTEKDLELEQLRSVALASGLPGRRSPVGGGGPGDPADTSSSDSLTQALQLAAANEPTFFLYAEQLARKEVEITSLRKQKHRLEVEVHQLQDRLLEEGERHREEVAALQSHIEKNIRDQSREGANLEYLKNIIYRFLTLPDSLGRQQTLTAILTILHFSPEEKQVIMRLPTSASWWPSGKR
partner: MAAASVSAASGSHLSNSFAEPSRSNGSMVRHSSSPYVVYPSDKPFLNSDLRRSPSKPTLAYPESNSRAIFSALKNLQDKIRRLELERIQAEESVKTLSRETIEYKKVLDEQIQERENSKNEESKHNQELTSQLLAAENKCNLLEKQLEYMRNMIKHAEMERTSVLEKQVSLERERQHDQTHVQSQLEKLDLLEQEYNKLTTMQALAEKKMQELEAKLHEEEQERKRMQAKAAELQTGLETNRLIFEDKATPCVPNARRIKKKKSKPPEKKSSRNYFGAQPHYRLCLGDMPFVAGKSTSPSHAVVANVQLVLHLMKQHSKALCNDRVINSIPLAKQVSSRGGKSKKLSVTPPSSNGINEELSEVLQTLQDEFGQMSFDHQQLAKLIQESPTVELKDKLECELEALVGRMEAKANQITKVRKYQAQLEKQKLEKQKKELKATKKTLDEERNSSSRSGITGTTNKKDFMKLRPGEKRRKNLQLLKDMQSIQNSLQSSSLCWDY
B3: Caspase-9 (Homo sapiens), P55211 (parent)
chain: MDEADRRLLRRCRLRLVEELQVDQLWDALLSRELFRPHMIEDIQRAGSGSRRDQARQLIIDLETRGSQALPLFISCLEDTGQDMLASFLRTNRQAAKLSKPTLENLTPVVLRPEIRKPEVLRPETPRPVDIGSGGFGDVGALESLRGNADLAYILSMEPCGHCLIINNVNFCRESGLRTRTGSNIDCEKLRRRFSSLHFMVEVKGDLTAKKMVLALLELAQQDHGALDCCVVVILSHGCQASHLQFPGAVYGTDGCPVSVEKIVNIFNGTSCPSLGGKPKLFFIQACGGEQKDHGFEVASTSPEDESPGSNPEPDATPFQEGLRTFDQLDAISSLPTPSDIFVSYSTFPGFVSWRDPKSGSWYVETLDDIFEQWAHSEDLQSLLLRVANAVSVKGIYKQMPGCFNFLRKKLFFKTS
B4: WASH complex subunit 3 (Homo sapiens), Q9Y3C0 (parent)
chain: MDEDGLPLMGSGIDLTKVPAIQQKRTVAFLNQFVVHTVQFLNRFSTVCEEKLADLSLRIQQIETTLNILDAKLSSIPGLDDVTVEVSPLNVTSVTNGAHPEATSEQPQQNSTQDSGLQESEVSAENILTVAKDPRYARYLKMVQVGVPVMAIRNKMISEGLDPDLLERPDAPVPDGESEKTVEESSDSESSFSD
partner: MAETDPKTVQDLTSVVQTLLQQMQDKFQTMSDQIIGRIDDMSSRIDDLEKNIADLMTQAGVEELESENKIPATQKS
B5: Protein boule-like (Homo sapiens), Q8N9W6 (parent)
chain: MQTDSLSPSPNPVSPVPLNNPTSAPRYGTVIPNRIFVGGIDFKTNESDLRKFFSQYGSVKEVKIVNDRAGVSKGYGFVTFETQEDAQKILQEAEKLNYKDKKLNIGPAIRKQQVGIPRSSIMPAAGTMYLTTSTGYPYTYHNGVAYFHTPEVTSVPPPWPSRSVCSSPVMVAQPIYQQPAYHYQATTQYLPGQWQWSVPQPSASSAPFLYLQPSEVIYQPVEIAQDGGCVPPPLSLMETSVPEPYSDHGVQATYHQVYAPSAITMPAPVMQPEPIKTVWSIHY
partner: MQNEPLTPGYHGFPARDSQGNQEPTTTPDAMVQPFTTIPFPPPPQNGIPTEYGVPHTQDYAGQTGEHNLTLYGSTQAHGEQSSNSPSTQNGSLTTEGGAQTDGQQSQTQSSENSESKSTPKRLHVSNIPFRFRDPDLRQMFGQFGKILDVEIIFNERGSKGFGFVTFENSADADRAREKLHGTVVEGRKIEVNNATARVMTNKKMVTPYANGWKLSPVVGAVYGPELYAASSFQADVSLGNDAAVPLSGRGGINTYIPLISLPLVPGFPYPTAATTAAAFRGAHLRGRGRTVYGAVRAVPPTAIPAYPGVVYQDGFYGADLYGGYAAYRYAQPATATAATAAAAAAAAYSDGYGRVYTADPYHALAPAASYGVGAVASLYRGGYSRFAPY
B6: Fas-activated serine/threonine kinase (Homo sapiens), Q14296-1 (parent)
chain: MRRPRGEPGPRAPRPTEGATCAGPGESWSPSPNSMLRVLLSAQTSPARLSGLLLIPPVQPCCLGPSKWGDRPVGGGPSAGPVQGLQRLLEQAKSPGELLRWLGQNPSKVRAHHYSVALRRLGQLLGSRPRPPPVEQVTLQDLSQLIIRNCPSFDIHTIHVCLHLAVLLGFPSDGPLVCALEQERRLRLPPKPPPPLQPLLRGGQGLEAALSCPRFLRYPRQHLISSLAEARPEELTPHVMVLLAQHLARHRLREPQLLEAIAHFLVVQETQLSSKVVQKLVLPFGRLNYLPLEQQFMPCLERILAREAGVAPLATVNILMSLCQLRCLPFRALHFVFSPGFINYISGTPHALIVRRYLSLLDTAVELELPGYRGPRLPRRQQVPIFPQPLITDRARCKYSHKDIVAEGLRQLLGEEKYRQDLTVPPGYCTDFLLCASSSGAVLPVRTQDPFLPYPPRSCPQGQAASSATTRDPAQRVVLVLRERWHFCRDGRVLLGSRALRERHLGLMGYQLLPLPFEELESQRGLPQLKSYLRQKLQALGLRWGPEGG
B7: Tripartite motif-containing protein 10 (Homo sapiens), Q9UDY6 (parent)
chain: MASAASVTSLADEVNCPICQGTLREPVTIDCGHNFCRACLTRYCEIPGPDLEESPTCPLCKEPFRPGSFRPNWQLANVVENIERLQLVSTLGLGEEDVCQEHGEKIYFFCEDDEMQLCVVCREAGEHATHTMRFLEDAAAPYREQIHKCLKCLRKEREEIQEIQSRENKRMQVLLTQVSTKRQQVISEFAHLRKFLEEQQSILLAQLESQDGDILRQRDEFDLLVAGEICRFSALIEELEEKNERPARELLTDIRSTLIRCETRKCRKPVAVSPELGQRIRDFPQQALPLQREMKMFLEKLCFELDYEPAHISLDPQTSHPKLLLSEDHQRAQFSYKWQNSPDNPQRFDRATCVLAHTGITGGRHTWVVSIDLAHGGSCTVGVVSEDVQRKGELRLRPEEGVWAVRLAWGFVSALGSFPTRLTLKEQPRQVRVSLDYEVGWVTFTNAVTREPIYTFTASFTRKVIPFFGLWGRGSSFSLSS
B8: E3 ubiquitin-protein ligase TRIM32 (Homo sapiens), Q13049 (parent)
chain: MAAAAASHLNLDALREVLECPICMESFTEEQLRPKLLHCGHTICRQCLEKLLASSINGVRCPFCSKITRITSLTQLTDNLTVLKIIDTAGLSEAVGLLMCRSCGRRLPRQFCRSCGLVLCEPCREADHQPPGHCTLPVKEAAEERRRDFGEKLTRLRELMGELQRRKAALEGVSKDLQARYKAVLQEYGHEERRVQDELARSRKFFTGSLAEVEKSNSQVVEEQSYLLNIAEVQAVSRCDYFLAKIKQADVALLEETADEEEPELTASLPRELTLQDVELLKVGHVGPLQIGQAVKKPRTVNVEDSWAMEATASAASTSVTFREMDMSPEEVVASPRASPAKQRGPEAASNIQQCLFLKKMGAKGSTPGMFNLPVSLYVTSQGEVLVADRGNYRIQVFTRKGFLKEIRRSPSGIDSFVLSFLGADLPNLTPLSVAMNCQGLIGVTDSYDNSLKVYTLDGHCVACHRSQLSKPWGITALPSGQFVVTDVEGGKLWCFTVDRGSGVVKYSCLCSAVRPKFVTCDAEGTVYFTQGLGLNLENRQNEHHLEGGFSIGSVGPDGQLGRQISHFFSENEDFRCIAGMCVDARGDLIVADSSRKEILHFPKGGGYSVLIREGLTCPVGIALTPKGQLLVLDCWDHCIKIYSYHLRRYSTP
B9: Vesicle transport protein SFT2B (Homo sapiens), O95562 (parent)
chain: MDKLKKVLSGQDTEDRSGLSEVVEASSLSWSTRIKGFIACFAIGILCSLLGTVLLWVPRKGLHLFAVFYTFGNIASIGSTIFLMGPVKQLKRMFEPTRLIATIMVLLCFALTLCSAFWWHNKGLALIFCILQSLALTWYSLSFIPFARDAVKKCFAVCLA
partner: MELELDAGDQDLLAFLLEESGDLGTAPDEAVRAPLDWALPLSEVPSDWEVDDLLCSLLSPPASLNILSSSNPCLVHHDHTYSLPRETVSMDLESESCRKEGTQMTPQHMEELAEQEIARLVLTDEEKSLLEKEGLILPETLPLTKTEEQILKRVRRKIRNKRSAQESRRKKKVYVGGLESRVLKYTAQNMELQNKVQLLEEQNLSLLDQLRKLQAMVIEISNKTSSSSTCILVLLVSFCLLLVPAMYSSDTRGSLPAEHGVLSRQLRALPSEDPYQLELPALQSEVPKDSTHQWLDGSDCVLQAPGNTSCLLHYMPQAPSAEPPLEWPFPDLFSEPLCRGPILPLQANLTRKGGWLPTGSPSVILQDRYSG
B10: Protein LDOC1 (Homo sapiens), O95751 (parent)
chain: MVDELVLLLHALLMRHRALSIENSQLMEQLRLLVCERASLLRQVRPPSCPVPFPETFNGESSRLPEFIVQTASYMLVNENRFCNDAMKVAFLISLLTGEAEEWVVPYIEMDSPILGDYRAFLDEMKQCFGWDDDEDDDDEEEEDDY
partner: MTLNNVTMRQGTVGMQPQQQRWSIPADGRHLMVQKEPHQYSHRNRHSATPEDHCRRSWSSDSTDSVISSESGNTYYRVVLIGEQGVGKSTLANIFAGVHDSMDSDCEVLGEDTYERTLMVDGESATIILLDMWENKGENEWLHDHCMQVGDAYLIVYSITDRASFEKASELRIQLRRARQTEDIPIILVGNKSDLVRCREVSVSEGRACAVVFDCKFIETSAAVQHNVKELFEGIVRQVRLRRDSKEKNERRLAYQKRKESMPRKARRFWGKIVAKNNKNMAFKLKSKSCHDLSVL

Variants of: B1
Conditions: with rint1_human RINT1, Q6NUQ1
Sequence of rint1_human RINT1, Q6NUQ1 (Q6NUQ1 whole entry): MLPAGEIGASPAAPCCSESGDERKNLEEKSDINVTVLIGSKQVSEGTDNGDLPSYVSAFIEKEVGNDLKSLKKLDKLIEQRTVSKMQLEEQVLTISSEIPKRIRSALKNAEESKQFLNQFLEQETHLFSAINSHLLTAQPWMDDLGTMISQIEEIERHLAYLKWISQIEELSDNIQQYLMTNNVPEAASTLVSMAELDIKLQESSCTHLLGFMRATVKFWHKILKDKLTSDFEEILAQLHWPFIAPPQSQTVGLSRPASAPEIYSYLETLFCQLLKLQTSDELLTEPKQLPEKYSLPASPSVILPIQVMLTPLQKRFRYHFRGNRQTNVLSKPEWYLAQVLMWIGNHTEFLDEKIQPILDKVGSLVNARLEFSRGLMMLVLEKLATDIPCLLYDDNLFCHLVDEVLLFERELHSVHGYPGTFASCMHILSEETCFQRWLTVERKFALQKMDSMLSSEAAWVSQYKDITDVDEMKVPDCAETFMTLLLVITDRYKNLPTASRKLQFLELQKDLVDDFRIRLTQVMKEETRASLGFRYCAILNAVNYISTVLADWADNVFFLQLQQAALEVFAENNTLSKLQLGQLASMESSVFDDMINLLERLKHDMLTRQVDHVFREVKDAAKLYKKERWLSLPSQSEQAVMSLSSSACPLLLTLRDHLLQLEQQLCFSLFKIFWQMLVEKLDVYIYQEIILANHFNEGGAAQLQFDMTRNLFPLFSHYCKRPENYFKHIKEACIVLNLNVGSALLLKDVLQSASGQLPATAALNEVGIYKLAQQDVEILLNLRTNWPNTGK

Row | effect of a mutation on the interaction | Variant
1 | with no effect | S192R

Variants of: B1
Conditions: with int13_human INTS13, Q9NVM9
Sequence of int13_human INTS13, Q9NVM9 (Q9NVM9 whole entry): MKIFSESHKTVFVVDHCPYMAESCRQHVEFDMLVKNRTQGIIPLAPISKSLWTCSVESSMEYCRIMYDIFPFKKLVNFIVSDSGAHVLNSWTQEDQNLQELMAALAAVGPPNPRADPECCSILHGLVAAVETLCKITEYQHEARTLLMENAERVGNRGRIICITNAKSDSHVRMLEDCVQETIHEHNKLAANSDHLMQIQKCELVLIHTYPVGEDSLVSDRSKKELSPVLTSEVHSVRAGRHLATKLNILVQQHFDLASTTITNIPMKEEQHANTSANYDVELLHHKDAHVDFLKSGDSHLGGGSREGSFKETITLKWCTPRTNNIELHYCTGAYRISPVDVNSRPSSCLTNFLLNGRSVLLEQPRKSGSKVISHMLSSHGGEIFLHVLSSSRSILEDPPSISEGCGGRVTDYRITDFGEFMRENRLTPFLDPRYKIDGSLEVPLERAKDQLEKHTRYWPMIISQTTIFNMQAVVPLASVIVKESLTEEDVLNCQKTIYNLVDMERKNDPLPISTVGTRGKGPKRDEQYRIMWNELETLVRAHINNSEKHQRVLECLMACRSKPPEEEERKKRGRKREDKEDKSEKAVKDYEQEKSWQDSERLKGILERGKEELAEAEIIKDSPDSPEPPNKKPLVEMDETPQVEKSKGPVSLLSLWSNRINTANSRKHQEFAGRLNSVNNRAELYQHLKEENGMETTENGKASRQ

Row | effect of a mutation on the interaction | Variant
2 | with no effect | C466G

Variants of: B2
Conditions: with cep57_human CEP57, Q86XR8

Row | effect of a mutation on the interaction | Variant
3 | with no effect | A274T

Variants of: B3
Conditions: with birc2_human BIRC2, Q13490
Sequence of birc2_human BIRC2, Q13490 (Q13490 whole entry): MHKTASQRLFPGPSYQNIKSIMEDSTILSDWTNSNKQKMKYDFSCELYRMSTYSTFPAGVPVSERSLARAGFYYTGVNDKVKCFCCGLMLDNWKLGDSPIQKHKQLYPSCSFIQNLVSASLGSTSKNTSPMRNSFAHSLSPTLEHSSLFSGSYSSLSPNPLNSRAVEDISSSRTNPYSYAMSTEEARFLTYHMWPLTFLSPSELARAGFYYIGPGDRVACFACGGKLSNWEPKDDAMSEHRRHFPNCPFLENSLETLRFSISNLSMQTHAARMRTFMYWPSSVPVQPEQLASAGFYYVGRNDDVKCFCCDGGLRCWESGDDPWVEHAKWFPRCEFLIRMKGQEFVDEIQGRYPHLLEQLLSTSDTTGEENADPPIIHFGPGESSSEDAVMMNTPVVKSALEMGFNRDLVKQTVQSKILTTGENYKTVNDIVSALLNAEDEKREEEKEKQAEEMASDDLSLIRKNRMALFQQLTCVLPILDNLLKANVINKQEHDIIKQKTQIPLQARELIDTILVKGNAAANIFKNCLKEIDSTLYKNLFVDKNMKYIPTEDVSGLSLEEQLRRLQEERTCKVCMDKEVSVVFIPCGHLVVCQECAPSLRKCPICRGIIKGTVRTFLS

Row | effect of a mutation on the interaction | Variant
4 | with no effect | P336S
5 | disrupting interaction strength | H237P
6 | with no effect | R173H
7 | disrupting interaction strength | R178C
8 | disrupting interaction strength | T366N
9 | with no effect | Q221R

Variants of: B3
Conditions: with xiap_human XIAP

Row | effect of a mutation on the interaction | Variant
10 | with no effect | P336S
11 | with no effect | Q221R

Variants of: B4
Conditions: with hsbp1_human HSBP1, O75506

Row | effect of a mutation on the interaction | Variant
12 | with no effect | F44L

Variants of: B5
Conditions: with rfox2_human RBFOX2, O43251

Row | effect of a mutation on the interaction | Variant
13 | with no effect | M270I
14 | with no effect | S9Y
15 | with no effect | V78I

Variants of: B6
Conditions: with wipf1_human WIPF1, O43516
Sequence of wipf1_human WIPF1, O43516 (O43516 whole entry): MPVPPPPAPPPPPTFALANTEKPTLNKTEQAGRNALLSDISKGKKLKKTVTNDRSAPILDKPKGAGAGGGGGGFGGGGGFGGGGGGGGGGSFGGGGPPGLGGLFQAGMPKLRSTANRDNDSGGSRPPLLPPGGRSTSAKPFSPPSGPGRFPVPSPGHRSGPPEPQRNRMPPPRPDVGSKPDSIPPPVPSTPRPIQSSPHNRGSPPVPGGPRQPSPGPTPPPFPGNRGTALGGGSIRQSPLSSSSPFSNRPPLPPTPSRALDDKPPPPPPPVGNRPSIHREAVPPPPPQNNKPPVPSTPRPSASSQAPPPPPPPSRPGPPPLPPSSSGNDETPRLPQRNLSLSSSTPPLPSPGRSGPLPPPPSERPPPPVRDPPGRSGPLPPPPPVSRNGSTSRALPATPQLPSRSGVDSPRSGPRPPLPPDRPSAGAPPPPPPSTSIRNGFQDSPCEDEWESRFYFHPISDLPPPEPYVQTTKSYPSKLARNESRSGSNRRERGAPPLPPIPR

Row | effect of a mutation on the interaction | Variant
16 | disrupting interaction strength | V424L

Variants of: B6
Conditions: with mdfi_human MDFI

Row | effect of a mutation on the interaction | Variant
17 | disrupting interaction strength | V424L

Variants of: B7
Conditions: with psa1_human PSMA1, P25786
Sequence of psa1_human PSMA1, P25786 (P25786 whole entry): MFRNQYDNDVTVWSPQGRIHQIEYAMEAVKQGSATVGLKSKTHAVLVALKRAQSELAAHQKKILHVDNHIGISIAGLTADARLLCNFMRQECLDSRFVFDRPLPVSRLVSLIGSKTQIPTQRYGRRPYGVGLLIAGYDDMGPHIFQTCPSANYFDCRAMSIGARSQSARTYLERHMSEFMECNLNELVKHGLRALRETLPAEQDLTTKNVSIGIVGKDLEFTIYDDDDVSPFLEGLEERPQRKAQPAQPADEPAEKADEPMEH

Row | effect of a mutation on the interaction | Variant
18 | with no effect | R65H

Variants of: B8
Conditions: with abi2_human ABI2, Q9NYB9
Sequence of abi2_human ABI2, Q9NYB9 (Q9NYB9 whole entry): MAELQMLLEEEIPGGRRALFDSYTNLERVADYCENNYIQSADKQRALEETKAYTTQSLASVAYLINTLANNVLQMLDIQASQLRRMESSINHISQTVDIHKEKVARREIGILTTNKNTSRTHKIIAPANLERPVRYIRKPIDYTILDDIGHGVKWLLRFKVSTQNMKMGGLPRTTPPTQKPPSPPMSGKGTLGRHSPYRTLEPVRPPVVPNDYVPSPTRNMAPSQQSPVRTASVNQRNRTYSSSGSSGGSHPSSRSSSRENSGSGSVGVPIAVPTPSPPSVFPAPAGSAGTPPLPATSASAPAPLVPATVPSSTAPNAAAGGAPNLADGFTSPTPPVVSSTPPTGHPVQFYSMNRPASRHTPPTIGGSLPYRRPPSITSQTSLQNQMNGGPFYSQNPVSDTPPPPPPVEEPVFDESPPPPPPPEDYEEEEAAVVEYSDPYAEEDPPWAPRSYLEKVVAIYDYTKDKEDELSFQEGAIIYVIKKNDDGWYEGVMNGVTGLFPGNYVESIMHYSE

Row | effect of a mutation on the interaction | Variant
19 | disrupting interaction strength | E547A

Variants of: B8
Conditions: with pde9a_human PDE9A

Row | effect of a mutation on the interaction | Variant
20 | disrupting interaction strength | E547A

Variants of: B8
Conditions: with sdcb1_human SDCBP

Row | effect of a mutation on the interaction | Variant
21 | disrupting interaction strength | E547A

Variants of: B9
Conditions: with creb3_human CREB3, O43889

Row | effect of a mutation on the interaction | Variant
22 | with no effect | T137M

Variants of: B10
Conditions: with gem_human GEM

Row | effect of a mutation on the interaction | Variant
23 | disrupting interaction strength | L12H
